Assay results: patent US20160053025A1 (SAMSUNG ELECTRONICS, published 2016)
Where a chain is given by its changes, count along the chain named.

What was measured:
[1] = target: T1, Ang2 RBD N467A, FLAG-tagged (human, UniProt O15123 281-496, limits assumed); assay: ELISA, antibody coated, FLAG-tagged mutant Ang2 RBD detected with anti-FLAG-HRP
T1 chain: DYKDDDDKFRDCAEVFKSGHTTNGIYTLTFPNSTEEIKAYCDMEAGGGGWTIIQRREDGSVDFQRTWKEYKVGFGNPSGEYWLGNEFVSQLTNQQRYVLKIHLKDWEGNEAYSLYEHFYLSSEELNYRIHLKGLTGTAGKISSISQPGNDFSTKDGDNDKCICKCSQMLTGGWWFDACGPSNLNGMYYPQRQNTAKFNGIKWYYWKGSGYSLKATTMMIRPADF
Protocol: (§1) To verify the epitope (or specific binding site) of the anti-Ang2 antibody prepared in Reference Example 2.3, an ELISA was performed using a recombinant protein where a receptor binding domain (RBD) of Ang2 protein in the form of being tagged with Flag was mutated by artificial means.
(§2) Each well of a 96-well MaxiSorp™ flat-bottom plate (Nunc) was coated with 50 ul (microliter) of 1000 nM antibody. Then, the plate was washed five times with 0.05% (v/v) Tween-20-containing PBS (PBST) and blocked with 1% (v/v) BSA-containing PBS at a room temperature for 2 hours. 250 ng of each mutant Ang2 protein obtained by substituting S417, Q418, P419, N421, 1434, D448, A449, P452, Y460, N467, K468, or F469 residue of Ang2 protein tagged with a FLAG sequence ([…], Sigma) at its N-terminal with alanine was added to each well of the plate, which was then allowed to react at a room temperature for 2 hours.
(§3) Finally, 50 ul of TMB substrates (Cell signaling) was added to each well of the plate to induce color development at a room temperature for 3 min. and the reaction was ceased by the addition of 50 ul of Stop solution (Cell signaling) and then, OD450 values were measured on a plate reader (Molecular Devices). By comparing binding affinities with mutated Ang2 to those of unmutated Ang2, each epitope of Ang2 antibodies was identified. The obtained measurement results of the binding affinities (%) with mutant Ang2 against the binding affinity with the native Ang2 are shown in the following Table 13.

[2] = target: T2, Ang2 RBD N421A, FLAG-tagged (human, UniProt O15123 281-496, limits assumed); assay: as above
T2 chain: T1 chain with N149A, A195N
Protocol: as §1, §2, §3

[3] = target: T3, Ang2 RBD I434A, FLAG-tagged (human, UniProt O15123 281-496, limits assumed); assay: as above
T3 construct: Printed as '1434', read as I434
T3 chain: T1 chain with I162A, A195N
Protocol: as §1, §2, §3

[4] = target: T4, Ang2 RBD P452A, FLAG-tagged (human, UniProt O15123 281-496, limits assumed); assay: as above
T4 chain: T1 chain with P180A, A195N
Protocol: as §1, §2, §3

[5] = target: T5, Ang2 protein (R&D systems) (human, UniProt O15123 19-496); assay: cell-based or functional assay
T5 sequence: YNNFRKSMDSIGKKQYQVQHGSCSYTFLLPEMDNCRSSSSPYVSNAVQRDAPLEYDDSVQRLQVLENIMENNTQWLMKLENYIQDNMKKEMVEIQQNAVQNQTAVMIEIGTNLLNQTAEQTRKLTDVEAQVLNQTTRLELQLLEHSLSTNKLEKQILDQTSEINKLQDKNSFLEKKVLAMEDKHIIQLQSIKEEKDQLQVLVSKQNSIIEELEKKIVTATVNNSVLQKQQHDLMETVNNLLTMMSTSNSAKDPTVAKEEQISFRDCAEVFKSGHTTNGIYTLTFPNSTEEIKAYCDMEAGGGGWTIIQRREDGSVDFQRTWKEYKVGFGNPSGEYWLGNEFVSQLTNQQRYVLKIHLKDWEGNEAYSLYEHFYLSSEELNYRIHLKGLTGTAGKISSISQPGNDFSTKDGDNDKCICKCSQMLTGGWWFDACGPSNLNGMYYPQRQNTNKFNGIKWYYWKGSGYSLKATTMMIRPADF

- binding affinity (%) with mutant Ang2 against the binding affinity with the native Ang2 [1]: 107%
- binding affinity (%) with mutant Ang2 against the binding affinity with the native Ang2 [2]: 109%
- binding affinity (%) with mutant Ang2 against the binding affinity with the native Ang2 [3]: 109%
- binding affinity (%) with mutant Ang2 against the binding affinity with the native Ang2 [4]: 102%
- Tie2 phosphorylation effect against control antibody RG [5]: ~8.6 fold
- Tie2 phosphorylation level (pTyr/Tie2 ratio, HUVEC, 60 nM antibody) [5]: 180%
B1: SAIT-ANG2-AB-m10D6 (antibody, V domains shown)
VH: DVQLQESGPDLVKPSQSLSLTCTVTGYSITSDYAWNWIRQFPGNKLEWMGYINYSGNTDYNPSLKSRSSITRDTSKNQFFLQLNSVTTGDTATYYCARGNFEGAMDYWGQGTSVTVSS
VL: SIVMTQTPKFLLVSAGDRVTITCKASQSVSNDVAWYQQKPGQSPKLLIYYASNRYPGVPDRFTGSGYGTDFTFTISTVQAEDLAVYFCQQDYSSPWTFGGGTKLEIK
notes: Mouse monoclonal antibody purified from a hybridoma (KCLRF-BP-00295); it is not applied here; also called mouse antibody 10D6; 10D6 antibody
